We go through five molecules from US20190365894A1 (GMAX BIOPHARM, published 2019).

Assay [1] deals with T1, human endothelin A receptor (hETAR) (human, UniProt P25101 21-427).
T1 construct: Expressed on stably transfected CHO-DHFR- cells; also called human endothelin receptor; CHO-DHFR-hETAR
T1 sequence: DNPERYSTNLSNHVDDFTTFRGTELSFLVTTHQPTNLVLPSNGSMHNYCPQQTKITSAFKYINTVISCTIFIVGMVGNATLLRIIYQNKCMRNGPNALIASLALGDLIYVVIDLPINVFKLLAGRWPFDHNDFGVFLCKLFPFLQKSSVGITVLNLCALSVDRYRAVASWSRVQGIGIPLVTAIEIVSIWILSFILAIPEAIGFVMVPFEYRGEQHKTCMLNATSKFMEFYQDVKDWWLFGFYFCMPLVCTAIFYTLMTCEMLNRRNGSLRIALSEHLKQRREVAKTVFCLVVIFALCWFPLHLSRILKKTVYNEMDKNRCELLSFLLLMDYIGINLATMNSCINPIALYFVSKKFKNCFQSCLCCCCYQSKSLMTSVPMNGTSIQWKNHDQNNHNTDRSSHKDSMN
Kind of assay: FACS on CHO-DHFR-ETAR cells against CHO-DHFR- cells. The protocol:
PBS containing 10 mM EDTA was used to detach and collect 10⁵ CHO-DHFR-hETAR cells into a 1.5 mL EP tube. The supernatant was removed after centrifugation and the negative control sample was resuspended with a loading buffer (PBS, 2% FBS). For the positive control, 200 μL antibody supernatant was added to resuspension cells and incubation at room temperature; the cells were then centrifuged at 1500 rpm to remove the supernatant, washed with a FACS loading buffer and centrifuged again. The cells were resuspended with addition (200 μL/well) of a FITC labeled goat anti-mouse fluorescent antibody at 1:50 dilution (BD Pharmingen) and incubated at room temperature for 30 min in the dark. Supernatant was removed after centrifugation, cells were washed with FACS loading buffer, centrifuged again and resuspended with the loading buffer for analysis.

The target of assay [2] is T1, human endothelin A receptor (hETAR). The assay is described as follows: cell-based or functional assay.

B1: anti-ETAR antibody A-12 (antibody, V domains shown)
VH: EVKLVESGGRLVQPGNSLRLSCATSGFTFSDYYMSWVRQTPGRALEWLSFIRNRANGYTTEYSASVKGRFTISRDNSQSILYLHMSTLRPEDSATYYCVRDSYHYGYFDVWGAGTTVTVSS
VL: EIQMTQTPSSLSASLGDRVTITCSASQGINNYLNWYQQKPGGKTRLLIYYTSTLQSGVPSRFSGSGSGTHYSLTISNLEPEDIATYYCQQFSKLRTFGGGTRLEIKR
notes: also called L12H12
Turning to B1, in assay [1], the binding result was “binds”.

B2: anti-ETAR antibody A-2 (antibody, V domains shown)
VH: QIQLVQSGAELAKPGASVRMSCETSGYTFTSYWIHWIKERPGQGLEWIGYINPDTDYSEYNQKFKDKARLTADKSSTTAYMELNSLTFDDSAVYYCASAGYYFFDFWGQGTTLTVSS
VL: DIQMTQSPASLSTSVGETVTITCRASENIYSYLAWYQQRQGKSPHLLVNNAKTLAEGVPSRFSGSGSGTHFSLRISGLQPEDFGSYYCQHHYGIPFTFGGGTKLSIKR
notes: also called L2H2
In the case of B2, the binding result in assay [1] is given as “binds”.

B3: anti-ETAR antibody A-1 (antibody, V domains shown)
VH: QVTLKESGPGILQPSQTLSLTCSFSGFSLTTSGLGVAWIRQPSGKGLEWLAHIWSDGDTRYYPALKNRLTISKDSSSNQVFLKIARVDTADTATYYCARMKDDSLYFDNWGQGTIFTVSS
VL: DILLTQSPAILSVSPGKRVSFSCRASQNIGTSIHWYQQRTNGSPRLLIKYASKSISGISSRFSGSGSGTDFTLSINSVESEDIAAYYCQHSYSWPWTFGGGTKLEIKR
Consider B3, for which the “calcium flux assay, inhibition of human ETAR (IC50)” value in assay [2] came to 37.9 nM.

B4: anti-ETAR antibody A-9 (antibody, V domains shown)
VH: EVQLQQPGGGLVQPGGSLTLSCATSGFTFSSYGMSWVRQTPAKRLELVATISTNGATANYPDSVKGRFTISRDNAKSTLYLQMRSLKSEDTAMYYCATEKGAMGYWGQGTSVTVSS
VL: DVLMTQTPLSLPVSLGDQASISCRSSQNIVHSTGNTYLEWYLQKPGQSPKLLIYKVSNRFSGVPNRFRGSGSGTDFTLKITRVEAEDLGIYYCFQGSHFPFTFGSGTKLEIKR
For the molecule B4, in assay [2], the “calcium flux assay, inhibition of human ETAR (IC50)” value came to 87.8 nM.

B5: anti-ETAR antibody A-7 (antibody, V domains shown)
VH: EVHLVESGGGLVQPGGSLKLSCAASGFTFSTYGMSWVRQTPDKRLELVATINTNGGTTYYRDSVKGRFTISRDNAKNTLYLQMSSLKSDDTAMYYCARDYGAMDYWGQGTSVTVSS
VL: DVLMTQTPLSLPVSLGDHASISCRSSQYIVHSTGTTYLEWYLQKPGQSPQLLIYKVSNRFSGVPDRFTGSGSGTDFTLRISRVEAEDLGVYFCFQGSHFPFTFGSGTKLEIKR
notes: also called L7H7
With B5, the binding result in assay [1] is “binds”.
